Among the data in article PMC12087824 (2025) are Kd values, retold here.

Usually Kd stands for a measure of binding affinity in units of concentration.

This assay addresses human CD40 receptor (hCD40) (human, UniProt P25942 21-277). The assay is described as follows: BLI. (BLI is a label-free optical method that tracks binding on a fibre tip over time.)

Chain of human CD40 receptor (hCD40) (P25942 21-277): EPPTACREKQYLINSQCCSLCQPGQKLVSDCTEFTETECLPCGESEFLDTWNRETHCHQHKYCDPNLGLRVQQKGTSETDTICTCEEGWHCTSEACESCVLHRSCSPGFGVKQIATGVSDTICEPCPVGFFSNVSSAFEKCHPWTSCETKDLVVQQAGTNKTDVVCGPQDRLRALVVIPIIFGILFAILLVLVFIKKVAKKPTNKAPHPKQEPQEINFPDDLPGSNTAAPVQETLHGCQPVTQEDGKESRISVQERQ

B1: DARPin WT_(CD40) binding the human CD40 receptor (designed binder)
chain: GSDLGKKLLQAARAGQLDEVRELLKAGADVNAKDTWGFTPLHIAAESGHLEIVEVLLKAGADVNAKDVQGRTPLHIAAHSGHLEIVEVLLKAGADVNAKDFRGWTPLHLAAWSGHLEIVEILLKAGADVNAQDKSGKTPADLAARAGHQDIAEVLQKAA
Take B1: the Kd came to 288 nM.
